For two substances, Kd and dH results are on record in article PMC5869024.

The target in test [1] is CXCR1 extracellular loop peptide two linked extracellular loops (Homo sapiens) (UniProt P25024). To be noted: cited from earlier work.
Test [2] concerns the target ND-CXCR1(1–38) (UniProt P25024). Description: ITC. A general note: Isothermal titration calorimetry measures the heat released or taken up as one component is titrated into another.
For test [3] the target is unchanged. In words: ITC. This is another data set of the same source.
For test [4], the target named is 1TM-CXCR1(1–72) reconstituted in nanodiscs (UniProt P25024). In words: ITC.

Like-named read-outs stand apart in the source and are kept apart here.

Sequence of ND-CXCR1(1–38) (P25024 1-38 C30S): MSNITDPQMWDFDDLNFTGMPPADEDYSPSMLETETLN
Sequence of 1TM-CXCR1(1–72) reconstituted in nanodiscs (P25024 1-72 C30S): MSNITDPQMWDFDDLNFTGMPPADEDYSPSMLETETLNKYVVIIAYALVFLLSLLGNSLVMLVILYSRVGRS
Sequence of CXCR1 extracellular loop peptide two linked extracellular loops (Homo sapiens) (P25024 whole entry): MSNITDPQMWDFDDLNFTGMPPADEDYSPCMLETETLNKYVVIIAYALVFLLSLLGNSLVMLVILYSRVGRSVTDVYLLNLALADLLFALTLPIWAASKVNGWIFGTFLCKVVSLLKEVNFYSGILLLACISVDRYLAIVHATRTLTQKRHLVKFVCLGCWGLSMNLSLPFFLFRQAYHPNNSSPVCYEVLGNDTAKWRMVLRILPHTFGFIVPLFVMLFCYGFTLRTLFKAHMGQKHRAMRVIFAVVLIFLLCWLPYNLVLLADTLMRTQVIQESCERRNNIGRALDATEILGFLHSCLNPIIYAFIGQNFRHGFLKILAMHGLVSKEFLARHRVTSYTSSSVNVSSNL
Sequence of IL-8 (P10145 28-99): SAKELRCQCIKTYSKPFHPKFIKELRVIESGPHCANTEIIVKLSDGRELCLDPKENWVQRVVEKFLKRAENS

For the substance IL-8 (from UniProt P10145), the Kd (in general, a measure of binding affinity in units of concentration) in test [1] was 0.5 µM.
For the substance “monomeric Interleukin-8 IL-8(1–66) (ligand)”, the Kd with ND-CXCR1(1–38) [2] was found to be 3.2 µM; in the test with ND-CXCR1(1–38) [3], 3.5 µM; in test [4], 12.5 µM. Further, the dH is -3.2 kcal/mol in the test with ND-CXCR1(1–38) [3] and -3.1 kcal/mol in test [4].
